experiment: soluble on expression in E. coli; label from the status in PepcDB or PDB records

Sequence | soluble on expression in E. coli
MAHPPRLNDDKPVIWTVSVTRLFELFRDISLEFDHLANITPIQLGFEKAVTYIRKKLANERCDAIIAAGSNGAYLKSRLSVPVILIKPSGYDVLQALAKAGKLTSSIGVVTYQETIPALVAFQKTFNLRLDQRSYITEEDARGQINELKANGTEAVVGAGLITDLAEEAGMTGIFIYSAATVRQAFSDALDMTRMSLRHNTHDATRNALRTRYVLGDMLGQSPQMEQVRQTILLYARSSAAVLIEGETGTGKELAAQAIHREYFARHDARQGKKSHPFVAVNCGAIAESLLEAELFGYEEGAFTGSRRGGRAGLFEIAHGGTLFLDEIGEMPLPLQTRLLRVLEEKEVTRVGGHQPVPVDVRVISATHCNLEEDMQQGRFRRDLFYRLSILRLQLPPLRERVADILPLAESFLKVSLAALSAPFSAALRQGLQASETVLLHYDWPGNIRELRNMMERLALFLSVEPTPDLTPQFMQLLLPELARESAKTPAPRLLTPQQALEKFNGDKTAAANYLGISRTTFWRRLKS | not soluble
MLDLFADAEPWQEPLAAGAVILRRFAFNAAEQLIRDINDVASQSPFRQMVTPGGYTMSVAMTNCGHLGWTTHRQGYLYSPIDPQTNKPWPAMPQSFHNLCQRAATAAGYPDFQPDACLINRYAPGAKLSLHQDKDEPDLRAPIVSVSLGLPAIFQFGGLKRNDPLKRLLLEHGDVVVWGGESRLFYHGIQPLKAGFHPLTIDCRYNLTFRQAGKKENLYFQNLYFQ | soluble
MAHHHHHHMGTLEAQTQGPGSMENKEKIYEGKAKIIFATLNPLEVIQHFKDEITAFNNKKAAIIHEKGILNNYISSFLMKKLIDKGIKTHFISLLNQREQLVKKITIIPIEVVIRNLAAGNFSKRFQIADGTPFKSPIIEFYYKNDELSDPMVSEGHILSFQWLTNQELEKIKILSLKINNILSELFFNVGIKLVDFKLEFGKLHNDEQSDLFLADEISPDTCRLWDISTNKRLDKDRYRLNLGNVIEGYREVAHKLNAIPNL | soluble
MGSDKIHHHHHHMTYKPKYDNLMENPKIRRWFENLKAKSILTATVYRRTLGYYCELEKTTPEQLLTDMEKLEFRDNFLDFVRRLEKEGKAGSYIVRYKKVLRSWAKFNGIDIKLDVNIANENESPTLDNERVPSKEELSRLLRKATSRGRVSIPIMAFSGFRPETLGNYEGTDGLRLGDIKELKISDEIEFTKIPATIMVKTRLSKARNQYFSFIGEEGITYIKEYLEERKKNGEELTYESPLLQFDVRGTKKNDFMRTMLVTRDIREAITTAGLKMRPYVLRAYFSTALDIAESKGLISHPWRQFIMGHKGDIEARYSTNKRLPPDMIEEMRESYRKCLKFLETRISDVSEDNAKLFLQQQLLSAVGYKQEEIDKLDLSSVSNEDFQQLLRDKVAGAMSDNGAKQKVIPVNEIEQYISDGYDFEAVLPNGKAVMRLRF | not soluble
MGSDKIHHHHHHMSFGVNRDESSAFCQRAFEAENWRLAASAGLAPTLVAQSIDGRCYLSPLLEDGGWQQRYQEVPLSQITCDAAFFTSPGQTHAGSDREPDGLTHTTRLLLDLLLGLQALPVPANVKGFTTQWQDYETALDASQSHWARNPRWQEAYQALAAEFTEVEAAMARLDAMGLSCQYSHRDLTPHNLLCHQGKLFCIDFEYACASHPLWDLAAVLASHNLPGRERRDLMDAYLYAHPQLESSMSSRVVDAVALHWYFGAIWALLMAGQSGDDDYLCWFHRYLQLAKS | not soluble
MGSDKIHHHHHHMDDIPALMRSLQLKRKPLMVCSGGTTSRCAAEGHWTLDLRQSCRQIHFDPSTQHVEIGAGQTMESLLRELAKHGRSFPTGLSGLPGLGYILNGGISPLSRSQGLAIDQILEIKGVWGDGESFVLSKPEAACCSEDQLAWRGLCGAAPFLAVITDLKLQTHLLQPLRIWQSNLTFEQLLELIHQAESWPDSLSLQWIWGDEVHAYGVLLSADAAAVATFNQLQKTTLCTNVVEIDDVAGIHELPPFALPVVSNAAIGRCHSEVVALLGPAWGSGCQGVITALAELMAERPDPRCSLAVQQLGGVASRQRKDVSSLIHREAIWKPWITAAWPAGDSHIRALSLNWLEKVWATLEPYCAGVHLAQMHPHLPWHQRELKAAFGEWLPGLQELKARHDPNGILPSL | not soluble
ADKKLVVATDTAFVPFEFKQGDLYVGFDVDLWAAIAKELKLDYELKPMDFSGIIPALQTKNVDLALAGITITDERKKAIDFSDGYYKSGLLVMVKANNNDVKSVKDLDGKVVAVKSGTGSVDYAKANIKTKDLRQFPNIDNAYMELGTNRADAVLHDTPNILYFIKTAGNGQFKAVGDSLEAQQYGIAFPKGSDELRDKVNGALKTLRENGTYNEIYKKWFGTEPK | soluble
MKNSDLYNGTLRTSFVPGSTLEAGIIFRATIPNGEFYEKEAGLSYYWLYILNGTVSFQRVENGEISNENKKYFPYGTSSAYEAKILLDDGDIYCYLNNRLVFHYTDENPLQGHQYGLKSEGSNLIVTEFATSSLEAPQHNEYLIFGHSYTDFWKTYKQDFHKYQDIYNIGIGGAITSDWCSEGYQKEVIAYQPKYGIYWNGINDINRNIAPKTIGDNVRRMAMEIKAAVPGFHLVLIGVCRCPIDSGRRSDIASTNNYYKQIASDLDYVTYIDTELMYCDSNGNEIANYFTDGLHPTHDAYIMCANAIMNTIK | soluble
MYEPKPEHRFTFGLWTVGNVGRDPFGDAVRERLDPVYVVHKLAELGAYGVNLHDEDLIPRGTPPQERDQIVRRFKKALDETGLKVPMVTANLFSDPAFKDGAFTSPDPWVRAYALRKSLETMDLGAELGAEIYVVWPGREGAEVEATGKARKVWDWVREALNFMAAYAEDQGYGYRFALEPKPNEPRGDIYFATVGSMLAFIHTLDRPERFGLNPEFAHETMAGLNFVHAVAQALDAGKLFHIDLNDQRMSRFDQDLRFGSENLKAAFFLVDLLESSGYQGPRHFDAHALRTEDEEGVWAFARGCMRTYLILKERAEAFREDPEVKELLAAYYQEDPAALALLGPYSREKAEALKRAELPLEAKRRRGYALERLDQLAVEYLLGVRG | soluble
MGSDKIHHHHHHMIRKFVNRKRELEVLEKARLFVVHGRRRVGKTALLRKFLENKRYEKDVEGFSQEISSFINAPVRFESSRDAFKFLREQGKLIVILDEFPYLIEADKGIVSEFQEIVDVMLDNSDVTLILCGSSVGMMEREVPSYKSPLYGRAGGILKVQPFRFFDMVEWFGKDFERLLRIYDVTWGIPKYMEFFRTGSDEEIIANFFDPSAFLFNEARLLLLEELRNPSRYMQIIEAITLWKTRLNEIAQYTGIEPKDLPSYLRVLSNLGIIKREVPITERKGKRWVYVIEDEYFRFYHRFVSPHYEEIESLNPEPAIEDFRKNFNAYLGRTFEKVSREFLTRVIKPSKVGRWWHKGEEIDIVALKGEERKALLVEVKWKELSEKEARRILKDLEHKGELIGMEKWKRCYGLIAKKIENKESIKGEGFFLWDLKDFKSEMI | not soluble
MATSLDRDKEAVLRALRPYLEGTGTRLFLFGSFARGEGRQASDLDLALLSPVPLKDLMPLLREALEEAPVVRRVDLVDLAEAEPAFRERVLREGVLWAEF | soluble
MHHHHHHSSGVDLGTENLYFQSMRTGYRVFSANSTAACTELAKRITERLGAELGKSVVYQETNGETRVEIKESVRGQDIFIIQTIPRDVNTAVMELLIMAYALKTACARNIIGVIPYFPYSKQSKMRKRGSIVCKLLASMLAKAGLTHIITMDLHQKEIQGFFSFPVDNLRASPFLLQYIQEEIPNYRNAVIVAKSPDAAKRAQSYAERLRLGLAVIHGEAQCTELDMDDGRHSPPMVKNATVHPGLELPLMMAKEKPPITVVGDVGGRIAIIVDDIIDDVESFVAAAEILKERGAYKIYVMATHGILSAEAPRLIEESSVDEVVVTNTVPHEVQKLQCPKIKTVDISLILSEAIRRIHNGESMAYLFRN | soluble
AESESFVLDFSQPSADYLDFRNRLQADHVCLENCVLKDKAIAGTVKVQNLAFEKTVKIRMTFDTWKSYTDFPCQYVKDTYAGSDRDTFSFDISLPEKIQSYERMEFAVYYECNGQTYWDSNRGKNYRIIRAELKSTQGMTKPHSGPDLG | soluble
MGSDKIHHHHHHMEIELKTLGNYKAILGESPVYDREGNRLFWVDIDGKKVIVNNLDTNEEKYYDTPDLVTSLCLIDYKRIIVTLRHGFHTLNLTTGEITPYLELENNGENRFNDGKCDIRDRYWAGTMNLHIENPKPTASLYKLEGQRLTKVLDKLYRSNGLGWDPDNKLFYLIDTPLRKVFQFDFDKDKGDIYNKRIVMDFKYEPGRPDGMTIDEEGYLWIAHSAGGKVSRWNPKNGEKVSEIKLPVLYVSSVTFGSPEMNQIFITTMSKGGEPLAGRLFTAKMNIKGLQSYKFLT | not soluble
MGSDKIHHHHHHPSLTCVMEGKDIEDWSCCPTPWTSFQSSCYFISTGMQSWTKSQKNCSVMGADLVVINTREEQDFIIQNLKRNSSYFLGLSDPGGRRHWQWVDQTPYNENVTFWHSGEPNNLDERCAIINFRSSEEWGWNDIHCHVPQKSICKMKKIYI | not soluble
MKAVVPTGKIYLGSPFYSDAQRERAAKAKELLAKNPSIAHVFFPFDDGFTDPDEKNPEIGGIRSMVWRDATYQNDLTGISNATCGVFLYDMDQLDDGSAFEIGFMRAMHKPVILVPFTEHPEKEKKMNLMIAQGVTTIIDGNTEFEKLADYNFNECPSNPVRGYGIY | soluble
MAHHHHHHMTSPALAPPQNTAEFWIKRLQLVPHPEGGYYSEVVRSAHKVDNEEGNRRHAYTTIYFLCTPESPSHLHRLCSDETWMYHAGDPLQLHVILKDPQDEDRIAAQPPAAPQAETDTADARPKYQVYRRVLVGARVERGELLQYTVPGGAIFGSSVAADGADGQAGYSLVSCIVSPGFDYRDFEIFTQAQLMELYPQHEAVIKQMAYETLPNHARLQTTEI | soluble
MQMSMLTRLHYFNCVVETGSISKASRIFDVQPSSISRQLTALEKELGVLLLKRTSRNIGLTEAGQTYYKYSQKIVSDLDEARCAVNDLQQKPKGNLKVSMAVGFAECCILPMIPTFTKLYPEINLELEMTGRVVDLVEENVDVAIRTGRLRDSNLIALKLTSNNFLLCASPQYITEHGTPKSPFNLTDFECIRYEYAGWRDWYLMNDKPTKLTIKSGLTVRSINGQKQLILNHAGLALMPKWSVINELDNGTLVQVLEQNIFSPYESMSSTYAIYLKRELISPKVRVFIDFIKDHIDYNS | not soluble
MAKQRVFIAGHRGMVGSAIRRQLEQRGDVELVLRTRDELNLLDSRAVHDFFASERIDQVYLAAAKVGGIVANNTYPADFIYQNMMIESNIIHAAHQNDVNKLLFLGSSCIYPKLAKQPMAESELLQGTLEPTNEPYAIAKIAGIKLCESYNRQYGRDYRSVMPTNLYGPHDNFHPSNSHVIPALLRRFHEATAQKAPDVVVWGSGTPMREFLHVDDMAAASIHVMELAHEVWLENTQPMLSHINVGTGVDCTIRELAQTIAKVVGYKGRVVFDASKPDGTPRKLLDVTRLHQLGWYHEISLEAGLASTYQWFLENQDRFRG | soluble
SPSYTVLGQLPDTDVYIDIDAYEEVKEIPGIKIFQINAPIYYANSDLYSSALKRKTGVNGSENIHTVILDFTQVNFMDSVGVKTLAGIVKEYGDVGIYVYLAGCSAQVVNDLTSNRFFENPALKELLFHSIHDAVLGSQVREA | soluble
MKVSDILTVAIRLEEEGERFYRELSEHFNGEIKKTFLELADQERIHAEIFRKMSDQENWDEVDSYLAGYAFYEVFPDTSEILRRKDLTLKEVLDIAISVEKDSIILYYELKDGLVNSDAQKTVKKIIDQEKEHLRKLLEMKREST | not soluble

— the DeepSol protein solubility set
